Source: patent US20200353078A1 (AstraZeneca / MedImmune, published 2020)
Blank lines part the entries; values can stand above or below the binder they belong to.

How the values were obtained:
[1] = target: T1, Human IL-33 (Axxora/Adipogen AG-40B-0038) (human, UniProt O95760 112-270, limits assumed); assay: HTRF epitope competition: unlabelled IgG against DyLight labelled H338L293 for biotinylated human IL-33
T1 construct: Bought; also called IL-33 (Adipogen); biotinylated human IL-33
T1 sequence (looked up): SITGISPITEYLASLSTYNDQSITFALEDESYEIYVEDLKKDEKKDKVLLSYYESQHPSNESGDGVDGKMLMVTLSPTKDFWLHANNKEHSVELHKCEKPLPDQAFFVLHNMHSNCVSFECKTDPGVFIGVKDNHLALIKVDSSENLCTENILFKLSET

[2] = target: T1, Human IL-33 (Axxora/Adipogen …); assay: cell-based or functional assay
[3] = target: T1, Human IL-33 (Axxora/Adipogen …); assay: cell-based or functional assay; remark: listed apart in the source
33_640237-2B IgG1 = target: T2, 33_640237-2B IgG1; assay: HTRF: unlabelled test protein competes with biotinylated human IL33-01 for DyLight650 labelled 33_640237-2B IgG
T2 construct: IgG1
Protocol: Human, cyno and mouse IL-33 FLAG® His (described in Example 1 and Table 21), Human IL-1 alpha and IL-1 beta (R&D Systems) (Table 21) or rat IL-33 (GenScript) were tested for inhibition of human IL-33 binding to DyLight650 labelled 33_640087-7B or DyLight650 labelled 33_640237-2B by adding 5 microlitres of each dilution of sample to a 384 well low volume assay plate (Costar, 3673). […] This was followed by the addition of 2.5 microlitres of a solution containing 0.12 nM biotinylated human IL-33-01 combined with 0.75 nM streptavidin cryptate detection (Cisbio International, 610SAKLB). All dilutions were performed in assay buffer containing 0.8 M potassium fluoride (VWR, 26820.236) and 0.1% bovine serum albumin (BSA, PAA, K05-013) in Dulbeccos PBS (Invitrogen, 14190185). Assay plates were incubated for 4 hours at room temperature followed by 18 hours at 4 degrees Celsius and time resolved fluorescence was read at 620 nm and 665 nm emission wavelengths using an EnVision plate reader (Perkin Elmer). Data were analysed by calculating the 665/620 nm ratio followed by the % Delta F values for each sample. The 665/620 nm ratio was used to correct for sample interference using Equation 1. The % Delta F for each sample was then calculated using Equation 2. The negative control (non-specific binding) was defined by replacing biotinylated human IL-33 combined with streptavidin cryptate detection with streptavidin cryptate detection only. The % Delta F values were subsequently used to calculate % specific binding as described in Equation 3. IC₅₀ values were determined using GraphPad Prism software by curve fitting using a four-parameter logistic equation (Equation 4).

Human IL-33 Flag®His [4] = target: T3, Human IL-33 Flag®His (human); assay: cell-based or functional assay
T3 chain: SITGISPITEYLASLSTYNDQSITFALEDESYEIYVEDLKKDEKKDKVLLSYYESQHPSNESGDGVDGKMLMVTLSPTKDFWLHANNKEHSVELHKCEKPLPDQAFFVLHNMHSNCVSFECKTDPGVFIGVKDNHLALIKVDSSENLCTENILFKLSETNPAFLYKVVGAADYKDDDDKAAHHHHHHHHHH

Human IL-33 Flag®His [5] = target: T3, Human IL-33 Flag®His; assay: HTRF competition, IgG titrated against biotinylated human ST2-Fc
Protocol: (§1) The ability of anti-IL-33 antibodies to inhibit the binding of FLAG®-His tagged IL-33 to the ST2 receptor was assessed in a biochemical HTRF® (Homogeneous Time-Resolved Fluorescence, Cisbio International) competition assay, the principles of which are described above.
(§2) Activity of purified IgG preparations were determined by competing a dilution series of the purified IgG against biotinylated human or mouse ST2.Fc for binding to FLAG® His-tagged human, cynomolgus or mouse IL-33.
(§3) Purified or unpurified anti-IL-33 antibody samples were tested for inhibition of FLAG®-His tagged IL-33 binding ST2-Fc by adding 10 microlitres of each dilution of antibody test sample to a 384 well low volume assay plate (Costar 3676). Next, a solution containing 4 nM biotinylated human or mouse ST2-Fc and 20 nM streptavidin XL665 detection (Cisbio International, 611SAXLB) was prepared and 5 microlitres of the mix added to the assay plate. This was followed by the addition of 5 microlitres of a solution containing 1.2 nM FLAG®-His tagged human, cynomolgus or mouse IL-33 combined with 1.72 nM anti-FLAG® cryptate detection (Cisbio International, 61FG2KLB). All dilutions were performed in assay buffer comprised of Dulbeccos PBS (Invitrogen, 14190185) containing 0.8 M potassium fluoride (BDH 103444T) and 0.1% BSA (Sigma A9576). Assay plates were incubated for 2 hour at room temperature followed by 16 hour at 4° C. before reading time resolved fluorescence at 620 nm and 665 nm emission wavelengths using an EnVision plate reader (Perkin Elmer).

[6] = target: T4, Cynomolgus IL-33 Flag®His (cynomolgus monkey); assay: as above
T4 construct: C-terminal FLAG 10xHis tag, E. coli; also called Mature Cynomolugus IL-33; cyno IL-33 FH
T4 chain: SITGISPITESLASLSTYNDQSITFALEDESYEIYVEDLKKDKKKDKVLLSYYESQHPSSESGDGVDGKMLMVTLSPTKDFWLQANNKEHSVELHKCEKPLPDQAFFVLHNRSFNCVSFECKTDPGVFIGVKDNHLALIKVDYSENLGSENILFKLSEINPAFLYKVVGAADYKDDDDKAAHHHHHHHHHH
Protocol: as §1, §2, §3

Human IL-33 Flag®His [7] = target: T3, Human IL-33 Flag®His; assay: SPR BIAcore 2000, IgG captured on Protein G', IL-33 as analyte, 1:1 Langmuir
Protocol: (§4) The binding affinity of purified IgG samples of exemplary binding members to human and cynomolgus IL-33 was determined by surface plasmon resonance using BIAcore 2000 biosensor (BIAcore AB) essentially as described by Karlsson et al., J Immunol Methods 145(1-2):229-40 (1991). In brief, Protein G′ (Sigma Aldrich, P4689) was covalently coupled to the surface of a CM5 sensor chip using standard amine coupling reagents according to manufacturer's instructions (BIAcore). The protein G′ surface was used to capture purified anti-IL-33 antibodies via the Fc domain to provide a surface density of approximately 290 RU per cycle. Human or cynomolgus IL-33 prepared in HBS-EP buffer (BIAcore AB), at a range of concentrations, between 600 nM and 18.75 nM, were passed over the sensor chip surface. The surface was regenerated using two 10 mM Glycine washes of pH 1.7 and pH 1.5 between each injection of antibody. The resulting sensorgrams were evaluated using BIA evaluation 3.1 software and fitted to a 1:1 Langmuir binding model, to provide relative binding data. The binding results (KD, Ka, and Kd) for antibodies IL330002 and IL330004 binding to human or cynomolgus IL-33 are shown in Table 8.

[8] = target: T4, Cynomolgus IL-33 Flag®His; assay: as above
Protocol: as §4

Human ST2 ECD-Flag-his10 = target: T5, Human ST2 ECD-Flag-his10 (human, UniProt Q01638 19-328); assay: SPR Biacore T100, 25 C, biotinylated human IL-33 on streptavidin C1 chip, ST2-Flag-His10 as analyte
T5 construct: also called Human ST2 Flag His; FLAG® His-tagged human ST2
T5 sequence: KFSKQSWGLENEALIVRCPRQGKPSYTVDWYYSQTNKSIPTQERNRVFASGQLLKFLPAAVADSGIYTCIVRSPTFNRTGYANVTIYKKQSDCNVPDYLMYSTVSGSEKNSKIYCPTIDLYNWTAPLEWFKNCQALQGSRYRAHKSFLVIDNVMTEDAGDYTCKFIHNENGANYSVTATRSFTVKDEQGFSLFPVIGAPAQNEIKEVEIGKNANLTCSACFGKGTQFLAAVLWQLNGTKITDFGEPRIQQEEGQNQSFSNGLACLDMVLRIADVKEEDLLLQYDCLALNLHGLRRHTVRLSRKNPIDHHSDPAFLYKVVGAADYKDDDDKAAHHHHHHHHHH
Protocol: Fab fragments were generated by papain cleavage from full length IgG1 and purified by SEC. […] Streptavidin was covalently immobilised to a C1 chip surface using standard amine coupling techniques at a concentration of […] in 10 mM Sodium acetate pH 4.5. […] Recombinant, enzymatically biotinylated human IL-33 (produced in-house) was titrated onto the streptavidin chip surface at […] in HBS-EP+ buffer to enable ˜30 RUs of Fab binding at saturation (Rmax). This low level of analyte binding ensured minimal mass transport effects.
The IL-33 Fab was serially diluted from 5 nM to 78 pM in HBS-EP+ buffer and flowed over the chip at 50 μl/min, with 3 minutes association and up to 30 minutes dissociation. Multiple buffer only injections were made under the same conditions to allow for double reference subtraction of the final sensorgram sets, which were analysed using the BiaEval software (version 2.0.1). The chip surface was fully regenerated with pulses of 3M MgCl₂.
The affinity of ST2-Flag-His10 (SEQ. ID no. 650) expressed in HEK-EBNA cells for human IL-33 was determined by BIACORE™ using the same methods described above.

B1: H338L293 IgG1 (as in Table 13) (antibody, V domains shown)
VH: EVQLLESGGGLVQPGGSLRLSCAASGFTFSSYAMSWVRQAPGKGLEWVSAISPREGWQYYADSVKGRFTISRDNSKNTLYLQMNSLRAEDTAVYYCVRVVAGYFDSWGRGTLVTVSS
VL: SYVLTQPPSVSVSPGQTARITCSGDALPKQYAHWYQQKPGQAPALVIYKDTERPSGIPERFSGSSSGTTVTLTISGVQAEDEADYYCMSSDPSGASRVFGGGTKVTVL
notes: IgG1
IC50 (read off the curve) [1]: ~1 nM
Huvec IL-6 production, maximum inhibition [2]: ~70%
Mast cell IL-6 production, inhibition [2]: 100%
IC50, Huvec IL-6 production [3]: 1.9 nM
IC50, Mast cell IL-6 production [3]: 1.7 nM

B2: IL330388 IgG1 (antibody, V domains shown)
VH: EVQLLESGGGLVQPGGSLRLSCAASGFTFSSYAMSWVRQAPGKGLEWVSASTPWQGSTYYADSVKGRFTISRDNSKNTLYLQMNSLRAEDTAVYYCVRWYWGWIDSWGRGTLVTVSS
VL: SYVLTQPPSVSVSPGQTARITCSGDALPKQYAHWYQQKPGQAPALVIYKDTERPSGIPERFSGSSSGTTVTLTISGVQAEDEADYYCMSSDPSGASRVFGGGTKVTVL
notes: IgG1; also called IL3300388
IC50 (read off the curve) [1]: ~1 nM
Huvec IL-6 production, maximum inhibition [2]: ~70%
Mast cell IL-6 production, inhibition [2]: 100%

B4: Mouse IL-33 Flag®His (ligand)
chain: SIQGTSLLTQSPASLSTYNDQSVSFVLENGCYVINVDDSGKDQEQDQVLLRYYESPCPASQSGDGVDGKKLMVNMSPIKDTDIWLHANDKDYSVELQRGDVSPPEQAFFVLHKKSSDFVSFECKNLPGTYIGVKDNQLALVEEKDESCNNIMFKLSKINPAFLYKVVGAADYKDDDDKAAHHHHHHHHHH
notes: C-terminal FLAG 10xHis tag, E. coli; also called Mature Mouse IL-33_FH; mouse IL-33 FH
binding result (33_640237-2B IgG1): no binding (tested: about 10^-5.5 M)

B7: IL330071 IgG1 (antibody, V domains shown)
VH: EVQLVESGAEVKQPGASVKVSCKASGYTFTSYGISWVRQAPGQGLEWMGWISAYNGNTNYAQKLQGRVTMTTDTSTSTAYMELRSLRSDDTAVYYCARRGFYHDAFDIWGRGTTVTVSS
VL: AIQLTQSPSSLSASVGDRVTITCRASQGISNYLAWYQQKPGKVPKLLIYAASTLQSGVPSRFSGSGSGTEFTLTISSLQPDDFATYYCQQYNSYSVTFGQGTKVEIK
notes: Human IgG1, lambda constant
IC50, human ST2 transfected HeLa NFkB luciferase reporter assay (Human IL-33 Flag®His [4]): 226 nM
IC50 (Human IL-33 Flag®His [5]): 59 nM
IC50 [6]: 375 nM

Further lines, results first:

IC50 (read off the curve) [1]: ~1 nM
Huvec IL-6 production, maximum inhibition [2]: ~70%
Mast cell IL-6 production, inhibition [2]: 100%
B3: IL330396 IgG1 (antibody, V domains shown)
VH: EVQLLESGGGLVQPGGSLRLSCAASGFTFSSYAMSWVRQAPGKGLEWVSASTPWQGSTYYADSVKGRFTISRDNSKNTLYLQMNSLRAEDTAVYYCVRWYWGWIDSWGRGTLVTVSS
VL: SYVLTQPPSVSVSPGQTARITCSGDALPKQYAHWYQQKPGQAPALVIYKDTERPSGIPERFSGSSSGTTVTLTISGVQAEDEADYYCMSSDDTGASRVFGGGTKVTVL
notes: IgG1; also called IL3300396

IC50, human ST2 transfected HeLa NFkB luciferase reporter assay (Human IL-33 Flag®His [4]): 226 nM
IC50 (Human IL-33 Flag®His [5]): 27 nM
IC50 [6]: 42 nM
Kd (Human IL-33 Flag®His [7]): 35 nM
koff (Human IL-33 Flag®His [7]): 0.00218 s⁻¹
kon (Human IL-33 Flag®His [7]): 61600 M⁻¹ s⁻¹
Kd [8]: 189 nM
koff [8]: 0.00442 s⁻¹
kon [8]: 23400 M⁻¹ s⁻¹
B5: IL330002 IgG1 (antibody, V domains shown)
VH: not shown
VL: SYELTQPPSLSVSPGQTASITCSGDKLGDKYVSWYQQKPGQSPILVIYHDNKRPSGIPERFSGSNSGNTATLTISGTQAMDEADYYCQAWDSNAGYVFGTGTKVTVL
notes: Human IgG1, lambda constant

Kd (Human ST2 ECD-Flag-his10): 2.9 pM
koff (Human ST2 ECD-Flag-his10): 4.35e-05 s⁻¹
kon (Human ST2 ECD-Flag-his10): 1.52e+07 M⁻¹ s⁻¹
B6: Recombinant human IL-33 (construct not named in the example) (ligand, UniProt O95760 112-270, looked up)
chain: SITGISPITEYLASLSTYNDQSITFALEDESYEIYVEDLKKDEKKDKVLLSYYESQHPSNESGDGVDGKMLMVTLSPTKDFWLHANNKEHSVELHKCEKPLPDQAFFVLHNMHSNCVSFECKTDPGVFIGVKDNHLALIKVDSSENLCTENILFKLSET
notes: also called Recombinant, enzymatically biotinylated human IL-33 (produced in-house); IL-33 (200 nM)
